Reference: patent publication EP4792891A2 (LTZ Therapeutics Inc., dated 2026)

Tests used:
[1] = target: EGFR on DLD-1 cells (UniProt P00533); assay: cell-based or functional assay
[2] = target: T1, CD79b on cells (Ramos cells, endogenous B cells) (human, UniProt P40259 29-229); assay: cell-based or functional assay
T1 sequence (looked up): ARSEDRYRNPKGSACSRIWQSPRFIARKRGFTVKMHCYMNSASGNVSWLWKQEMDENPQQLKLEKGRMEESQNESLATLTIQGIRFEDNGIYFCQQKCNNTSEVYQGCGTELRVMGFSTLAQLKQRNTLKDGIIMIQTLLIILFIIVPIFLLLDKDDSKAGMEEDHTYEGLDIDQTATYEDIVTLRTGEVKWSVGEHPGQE

Necitumumab (antibody)
IC50 (nM), DLD-1 cell killing by M0 macrophages [1]: 0.0574 nM

B1: CD79b/5C7 (1+1 B) Fc-optimized (bispecific antibody, human IgG1, kappa)
heavy 1: EQQLVETGGGLIQPGGSLRLSCAASGFTINIDYWISWVRQAPGKGLEWIGIIDPGDGTTYFAIWVSGRFTISFDNSKNTVYLQMNSLRAEDTAVYFCVREFSASAYQYDLWGPGTLVTVSSASTKGPSVFPLAPSSKSTSGGTAALGCLVKDYFPEPVTVSWNSGALTSGVHTFPAVLQSSGLYSLSSVVTVPSSSLGTQTYICNVNHKPSNTKVDKKVEPKSCDKTHTCPPCPAPELLAGPSVFLFPPKPKDTLMISRTPEVTCVVVDVSHEDPEVKFNWYVDGVEVHNAKTKPREEQYNSTYRVVSVLTVLHQDWLNGKEYKCKVSNKALPLPEEKTISKAKGQPREPQVYTLPPSRDELTKNQVSLSCAVKGFYPSDIAVEWESNGQPENNYKTTPPVLDSDGSFFLVSKLTVDKSRWQQGNVFSCSVMHEALHNHYTQKSLSLSPGK
heavy 2: DIQMTQSPSSLSASVGDRVTITCQASESVDRNNRLAWFQQKPGKPPKLLIYTTSTLASGVPSRFSGSGSGTDFTLTISSLQPEDVATYYCAGYRGAHTDGDAFGGGTKVEIKGGGGSGGGGSGGGGSGGGGSEQQLVESGGGLVKPGGSLRLSCAASGFSFSRSSYMCWVRQAPGKGLEWIGCLSVGDGHTYYASWAKGRFTISKDSAKNSVYLQMNSLRAEDTAVYFCARAPSYSGDGGHGYDLWGPGTLVTVSSDKTHTCPPCPAPELLAGPSVFLFPPKPKDTLMISRTPEVTCVVVDVSHEDPEVKFNWYVDGVEVHNAKTKPREEQYNSTYRVVSVLTVLHQDWLNGKEYKCKVSNKALPLPEEKTISKAKGQPREPQVYTLPPSRDELTKNQVSLWCLVKGFYPSDIAVEWESNGQPENNYKTTPPVLDSDGSFFLYSKLTVDKSRWQQGNVFSCSVMHEALHNHYTQKSLSLSPGK
light: ELVMTQSPATLSVSPGERATLSCRASEDIENYLAWYQQKPGQPPRLLIYRASTLSSGVPARFSGSGSGTEFTLTISSLQSEDFAVYYCQQGYRNSNVDNPFGGGTKVEIKRTVAAPSVFIFPPSDEQLKSGTASVVCLLNNFYPREAKVQWKVDNALQSGNSQESVTEQDSKDSTYSLSSTLTLSKADYEKHKVYACEVTHQGLSSPVTKSFNRGEC
IC50 (nM), killing of endogenous B cells by PBMCs, Donor 234 [2]: 0.0453 nM

B2: CD79b/5C7 (2+2 B) Fc-optimized (bispecific antibody, human IgG1, kappa)
heavy: EQQLVETGGGLIQPGGSLRLSCAASGFTINIDYWISWVRQAPGKGLEWIGIIDPGDGTTYFAIWVSGRFTISFDNSKNTVYLQMNSLRAEDTAVYFCVREFSASAYQYDLWGPGTLVTVSSASTKGPSVFPLAPSSKSTSGGTAALGCLVKDYFPEPVTVSWNSGALTSGVHTFPAVLQSSGLYSLSSVVTVPSSSLGTQTYICNVNHKPSNTKVDKKVEPKSCDKTHTCPPCPAPELLAGPSVFLFPPKPKDTLMISRTPEVTCVVVDVSHEDPEVKFNWYVDGVEVHNAKTKPREEQYNSTYRVVSVLTVLHQDWLNGKEYKCKVSNKALPLPEEKTISKAKGQPREPQVYTLPPSRDELTKNQVSLTCLVKGFYPSDIAVEWESNGQPENNYKTTPPVLDSDGSFFLYSKLTVDKSRWQQGNVFSCSVMHEALHNHYTQKSLSLSPGGGGGSGGGGSGGGGSDIQMTQSPSSLSASVGDRVTITCQASESVDRNNRLAWFQQKPGKPPKLLIYTTSTLASGVPSRFSGSGSGTDFTLTISSLQPEDVATYYCAGYRGAHTDGDAFGCGTKVEIKGGGGSGGGGSGGGGSGGGGSEQQLVESGGGLVKPGGSLRLSCAASGFSFSRSSYMCWVRQAPGKCLEWIGCLSVGDGHTYYASWAKGRFTISKDSAKNSVYLQMNSLRAEDTAVYFCARAPSYSGDGGHGYDLWGPGTLVTVSS
light: B1 light
IC50 (nM), killing of endogenous B cells by PBMCs, Donor 367 [2]: 0.0168 nM
IC50 (nM), killing of endogenous B cells by PBMCs, Donor 431 [2]: 0.0168 nM
